Ends that are not written are not given here.
Legend:
[1] = target: T1, α-thrombin (UniProt P00734 364-622); assay: cell-based or functional assay
[2] = target: T1, α-thrombin; assay: ELISA; competition: HCII 1-75 immobilised on microtiter wells; competitor peptides added with 5 nM α-thrombin; ratio of absorbance with and without competitor; IC50 by linear regression of log-transformed plots; conditions: both partners purified
[3] = target: T1, α-thrombin; assay: SPR; competition: BIAcore X, 25°C; biotinylated HCII 1-75 on streptavidin-coated chip; peptides combined with 250 nM thrombin immediately before flowing over the chip; Ki from IC50 and the KD of 340 nM; conditions: both partners purified

B1: HCII 54-75 (synthetic peptide containing residues 54-75 of human HCII and a nonapeptide N-terminal tag) (peptide)
chain: GEEDDDYLDLEKIFSEDDDYID
modifications: not fully specified (N-terminus); ends and bridges not checked; also: nonapeptide N-terminal tag, unmodified amino terminus
[1]
  fold reduction of the apparent second-order rate constant of inhibition of 14 nM thrombin by 140 nM plasma-derived HCII with 55 μg/mL standard heparin, 250 μM peptide (Figure 5A): 1.6 fold
  fold reduction of the apparent second-order rate constant of inhibition of thrombin by plasma-derived HCII with 1.4 μM dermatan sulfate, 250 μM peptide (Figure 5B): 1.6 fold
[2]
  IC50: 110 µM
[3]
  Ki: 8.5 µM
  Ki of equimolar HCII 54-75 and HCII 1-53: 13 µM
